No end group written: not given here.
Assays:
[1] = target: T1, recombinant human wild-type EGFR protein, native (human, UniProt P00533 25-645); experiment: ELISA on coated native recombinant antigen; Exp 1, mAb supernatant
T1 construct: Recombinant protein used as ELISA coat; also called EGFRwt; wt EGFR
Protocol: (§1) Pre- and post-immune sera titers of animals were assessed by ELISA on recombinant EGFRvIII protein. Unless otherwise stated, all incubations were performed at room temperature. Briefly, half-area 96-well plates (Costar #3690) were coated with 25 μl per well of immunogen at 5 μg/ml in PBS and incubated overnight at 4° C. Microplates were washed three times in PBS and blocked for 30 min with PBS containing 1% bovine serum albumin (BSA, Sigma Cat#A7030). Blocking buffer was removed and 25 μl of serial dilutions of sera samples were added. After a 2-h incubation, microplates were washed 4 times with PBS-TWEEN™ 20 0.05% and 25 μl of a 1/5,000 dilution of alkaline phosphatase conjugated F(ab′)′₂ goat anti-mouse IgG (H+L, #115-056-062, Jackson Immunoresearch, Cedarlane, Burlington, ON) in blocking buffer was added. After a 1-h incubation, microplates were washed 4 times and 25 μl of p-nitrophenyl phosphate (pNPP) substrate (Sigma-Aldrich Canada Co., Oakville, ON) at 1 mg/ml in carbonate buffer at pH 9.6 was added and further incubated for 30 min. Absorbance was read at 405 nm using a SpectraMax 340 PC plate reader (Molecular Devices, Sunnyvale, Calif.).
(§2) To evaluate if monoclonal antibodies bind to a conformational epitope, an ELISA analysis on native and denatured recombinant human wild-type EGFR and EGFRvIII proteins were performed. […] Antigens at 1-2 mg/ml were denatured by incubation at 95° C. for 5 min in PBS containing DTT at 40 mM final concentration. They were then incubated on ice for 5 min and diluted at their final coating concentration for ELISA purpose.
(§3) mAbs were purified using HiTrap ProteinG HP 1 mL columns GE Healthcare cat no. 17-0404-01 and desalted using Zeba-spin desalting columns 5 mL (Pierce) pre-equilibrated in PBS and filter sterilized through […] membrane (Millipore). The final concentration of the antibody solutions was determined using a Nano-drop 2000 (ThermoScientific), using IgG as sample type. ELISA was performed as described above (serum titer determination) using 25 μl of mAb supernatant (Exp 1) or purified mAb at 1 μg/ml (Exp 2).

[2] = target: T2, recombinant human EGFRvIII protein, native (human, UniProt P00533 298-623); experiment: as above
T2 construct: Recombinant extracellular domain used as immunogen and ELISA coat; also called EGFRvIII Native
Protocol: as §1, §2, §3

[3] = target: T1, recombinant human wild-type EGFR …; experiment: ELISA on coated native recombinant antigen; Exp 2, purified mAb 1 µg/ml
Protocol: as §1, §2, §3

[4] = target: T2, recombinant human EGFRvIII protein, …; experiment: as above
Protocol: as §1, §2, §3

[5] = target: T3, wild-type human EGFR expressed on cells (U87MG overexpressing wild-type human EGFR) (human, UniProt P00533 25-645); experiment: flow cytometry, hybridoma supernatant on U87MG-EGFR WT cells
T3 construct: Full length wt EGFR on cells; also called U87MG-EGFR WT; U87 WT
Protocol: Prior to analysis, cells were plated such that they were not more than 80% confluent on the day of analysis. Unless otherwise stated, all media are kept are 4° C. and all incubations are performed on wet ice.

[6] = target: T4, recombinant human EGFRvIII protein, denatured (human, UniProt P00533 298-623); experiment: ELISA on coated denatured recombinant antigen; Exp 1, mAb supernatant
T4 construct: Same protein as m9 after denaturation (95 °C for 5 min in PBS with 40 mM DTT); also called EGFRvIII Denatured
Protocol: as §1, §2, §3

[7] = target: T5, human EGFRvIII amino acid residues 1 to 18, yeast-displayed (human, not fully specified); experiment: yeast display; smallest EGFRvIII fragment the antibody was able to bind
T5 construct: also called aa 1-18
T5 peptide: LEEKKGNYVVTDHGSCVR
Excerpt: Assessment of the binding of anti-EGFRvIII monoclonal antibodies to the fusion proteins expressed on yeast cell surface was done by flow cytometry analysis. Yeast cells were labeled with both the anti-EGFRvIII monoclonal antibody and chicken anti-Myc antibody the latter being used to monitor the level of expression of the fusion protein. Following a wash step, binding of the primary antibodies is probed by a two-color indirect fluorescence labeling using a specific mouse and chicken secondary antibodies for each of the primary antibody respectively.

[8] = target: T6, recombinant human wild-type EGFR protein, denatured (human, UniProt P00533 25-645); experiment: ELISA on coated denatured recombinant antigen; Exp 2, purified mAb 1 µg/ml
T6 construct: Same protein as m11 after denaturation (95 °C for 5 min in PBS with 40 mM DTT); also called EGFRwt Denatured
Protocol: as §1, §2, §3

[9] = target: T4, recombinant human EGFRvIII protein, …; experiment: as above
Protocol: as §1, §2, §3

B1: F271-1D2 anti-EGFRvIII monoclonal antibody (antibody, V domains shown)
VH: DVQLQESGPDLVKPSQSLSLTCTVTGYSITSGYSWHWIRQFPGNKLEWMGYIHYSGSTNYNPSLKSRISITRDTSKNQFFLQLSSVTTEDTATYYCTRSPYFDVWGTGTTVTVSS
VL: DVVMTQTPLSLPVSLGDQASISCRSSQSLVHSDGNTYLHWYLQKPGQSPKLLIYKVSNRFSGVPDRFSGSGSGTDFTLKISRVEAEDLGVYFCSQSTHVPWTFGGGTKLEIK
notes: Mouse hybridoma IgG, tested as supernatant or Protein G purified mAb
ELISA absorbance (405 nm) [1]: 0.002 A405 | ELISA absorbance (405 nm) [2]: 1.49 A405 | ELISA absorbance (405 nm) [3]: 0.004 A405 | ELISA absorbance (405 nm) [4]: 0.935 A405 | binding result [5]: no binding | ELISA absorbance (405 nm) [6]: 2.55 A405 | binding result [7]: binds | ELISA absorbance (405 nm) [8]: 0 A405 | ELISA absorbance (405 nm) [9]: 1.05 A405
